Values belong to the molecule of their own block, whether it stands above or below them.
Experiments:
[1] = tested on: GFP-14-3-3β and its binding proteins; assay: GFP-14-3-3β co-IP with LC-MS/MS label-free quantification, untreated versus PP1c-treated; parameters: species or system human; details: label-free quantification, 3 replicates each
GFP-14-3-3β = GFP-14-3-3β co-IP with LC-MS/MS, untreated GFP-14-3-3β versus GFP control (14-3-3 interactome); type: binding, human; details: label-free quantification, 3 replicates each
[2] = GFP-14-3-3β co-IP LC-MS/MS, PP1 vs untreated, student's t-test
[3] = GFP-14-3-3β co-IP LC-MS/MS, untreated vs GFP, student's t-test

B1: GNAS (protein, UniProt P63092 2-394, looked up)
Guanine nucleotide-binding …: GCLGNSKTEDQRNEEKAQREANKKIEKQLQKDKQVYRATHRLLLLGAGESGKSTIVKQMRILHVNGFNGEGGEEDPQAARSNSDGEKATKVQDIKNNLKEAIETIVAAMSNLVPPVELANPENQFRVDYILSVMNVPDFDFPPEFYEHAKALWEDEGVRACYERSNEYQLIDCAQYFLDKIDVIKQADYVPSDQDLLRCRVLTSGIFETKFQVDKVNFHMFDVGGQRDERRKWIQCFNDVTAIIFVVASSSYNMVIREDNQTNRLQEALNLFKSIWNNRWLRTISVILFLNKQDLLAEKVLAGKSKIEDYFPEFARYTTPEDATPEPGEDPRVTRAKYFIRDEFLRISTASGDGRHYCYPHFTCAVDTENIRRVFNDCRDIIQRMHLRQYELL
Difference (log2), PP1 vs untreated [1, 2]: -0.7154 log2 | Difference (log2), untreated vs GFP (GFP-14-3-3β; [3]): 0.1054 log2

B3: MATR3 (protein, UniProt P43243 2-847, looked up)
Matrin-3: SKSFQQSSLSRDSQGHGRDLSAAGIGLLAAATQSLSMPASLGRMNQGTARLASLMNLGMSSSLNQQGAHSALSSASTSSHNLQSIFNIGSRGPLPLSSQHRGDADQASNILASFGLSARDLDELSRYPEDKITPENLPQILLQLKRRRTEEGPTLSYGRDGRSATREPPYRVPRDDWEEKRHFRRDSFDDRGPSLNPVLDYDHGSRSQESGYYDRMDYEDDRLRDGERCRDDSFFGETSHNYHKFDSEYERMGRGPGPLQERSLFEKKRGAPPSSNIEDFHGLLPKGYPHLCSICDLPVHSNKEWSQHINGASHSRRCQLLLEIYPEWNPDNDTGHTMGDPFMLQQSTNPAPGILGPPPPSFHLGGPAVGPRGNLGAGNGNLQGPRHMQKGRVETSRVVHIMDFQRGKNLRYQLLQLVEPFGVISNHLILNKINEAFIEMATTEDAQAAVDYYTTTPALVFGKPVRVHLSQKYKRIKKPEGKPDQKFDQKQELGRVIHLSNLPHSGYSDSAVLKLAEPYGKIKNYILMRMKSQAFIEMETREDAMAMVDHCLKKALWFQGRCVKVDLSEKYKKLVLRIPNRGIDLLKKDKSRKRSYSPDGKESPSDKKSKTDGSQKTESSTEGKEQEEKSGEDGEKDTKDDQTEQEPNMLLESEDELLVDEEEAAALLESGSSVGDETDLANLGDVASDGKKEPSDKAVKKDGSASAAAKKKLKKVDKIEELDQENEAALENGIKNEENTEPGAESSENADDPNKDTSENADGQSDENKDDYTIPDEYRIGPYQPNVPVGIDYVIPKTGFYCKLCSLFYTNEEVAKNTHCSSLPHYQKLKKFLNKLAEERRQKKET
Difference (log2), PP1 vs untreated [1, 2]: -0.7331 log2 | Difference (log2), untreated vs GFP (GFP-14-3-3β; [3]): 1.234 log2

Further lines, with some results ahead:

Difference (log2), PP1 vs untreated [1, 2]: -0.7159 log2
B2: BASP1 (protein, UniProt P80723 2-227, looked up)
Brain acid soluble protein 1: GGKLSKKKKGYNVNDEKAKEKDKKAEGAATEEEGTPKESEPQAAAEPAEAKEGKEKPDQDAEGKAEEKEGEKDAAAAKEEAPKAEPEKTEGAAEAKAEPPKAPEQEQAAPGPAAGGEAPKAAEAAAAPAESAAPAAGEEPSKEEGEPKKTEAPAAPAAQETKSDGAPASDSKPGSSEAAPSSKETPAATEAPSSTPKAQGPAASAEEPKPVEAPAANSDQTVTVKE
Difference (log2), untreated vs GFP (GFP-14-3-3β; [3]): -1.2737 log2

Difference (log2), PP1 vs untreated ([1]; log2 difference, pairwise comparison PP1 vs untreated): 1.651
B4: SLC16A3 (protein, UniProt O15427 2-465, looked up)
Monocarboxylate transporter 4: GGAVVDEGPTGVKAPDGGWGWAVLFGCFVITGFSYAFPKAVSVFFKELIQEFGIGYSDTAWISSILLAMLYGTGPLCSVCVNRFGCRPVMLVGGLFASLGMVAASFCRSIIQVYLTTGVITGLGLALNFQPSLIMLNRYFSKRRPMANGLAAAGSPVFLCALSPLGQLLQDRYGWRGGFLILGGLLLNCCVCAALMRPLVVTAQPGSGPPRPSRRLLDLSVFRDRGFVLYAVAASVMVLGLFVPPVFVVSYAKDLGVPDTKAAFLLTILGFIDIFARPAAGFVAGLGKVRPYSVYLFSFSMFFNGLADLAGSTAGDYGGLVVFCIFFGISYGMVGALQFEVLMAIVGTHKFSSAIGLVLLMEAVAVLVGPPSGGKLLDATHVYMYVFILAGAEVLTSSLILLLGNFFCIRKKPKEPQPEVAAAEEEKLHKPPADSGVDLREVEHFLKAEPEKNGEVVHTPETSV
Difference (log2), untreated vs GFP (GFP-14-3-3β; log2 difference, pairwise comparison untreated vs GFP): 0.1883
